Test results from publication PMC8371249.

Columns and labels:
[1] = molecular target: apo-SufR (clusterless Mtb SufR, Rv1460) (Mycobacterium tuberculosis); test: SEC
[2] = molecular target: holo-SufR (Mtb SufR, Rv1460, with its 4Fe–4S cluster) (Mycobacterium tuberculosis); test: SEC

## apo-SufR (clusterless Mtb SufR, Rv1460) (natural protein)
[1]
  stoichiometry N: 2

## holo-SufR (Mtb SufR, Rv1460, with its 4Fe–4S cluster) (natural protein)
[2]
  stoichiometry N: 2
